# The DeepSol protein solubility set
# Assay: soluble on expression in E. coli; label from the status in PepcDB or PDB records
row,Sequence,soluble on expression in E. coli
1,MGSDKIHHHHHHMKLSDFIKTEDFKKEKHVPVIEAPEKVKKDEKVQIVVTVGKEIPHPNTTEHHIRWIKVFFQPDGDPYVYEVGRYEFNAHGESVQGPNIGAVYTEPTVTTVVKLNRSGTIIALSYCNIHGLWESSQKITVEE,soluble
2,MGSDKIHHHHHHMKLTAQIHIEKMAYELRDHAHAVIKNVLLMSNISTLSLQLAMRELAQHSRVALHFHPDQIDNRGLTVVDGLLRDGVYKSQFETHVSNGHLSPELGGSRDHWENQLFGHSYSGIKHRPKYGALDFGLCPLGPAPRFGSCYLVTHPQILSRCTFSYMDSHRLPKEKGTIKCFDAILAALLSESFERQYALGVSGLKPSKLIEHFSQHLTDDISRRFDLVPSGNLDHYIEAQIHGDVSLDQDIAILVADPSYMGTAIGDSLIALCHEYGIELHWHQGRQINVAQIPDDFRGAAMPILAQSLAENELINAEIIGRAAYQLQKQPASWSERGAHSKKRQDLKLLWHVLVKYGESTGQ,not soluble
3,MGSDKIHHHHHHMKLTIAGDSHGKYMVAILEGLPSGIRVDEELIRRDLFRRRNCYGRGKRMKMEEDAFEIVSGLWKGITTGAPVTILIPNRAGNPVKDVRSVPRPGHIDYAAWVKYKLPDLNIYVERSSARWTVALTAAGSLLKSLLKEFGIEVLGFVTRLGNVEARDIPGDFEELKRRRDESVVFCPDPEATKEMVAEIDRAKEEGNTLGGKVKVIARGVPAGIGSYSDLFKKLDSKIGSLFFAIPAVKGVVIGSEEMWYGFDYLDEFELEDGKIKRKTNNLGGIEGGITNGEDVWVNVSVKPIPTTGKPLKSVDLRTMEPAKTPYVRSDVTAVPPASVVCEAALAVVISDALLEHLGDGNIDDLKRRFENENLPRWNDGFWKEHYR,not soluble
4,MGSDKIHHHHHHMKLVSLRLEEGLIEKIDEVARKTLQSRSEIIRSSIALYLSLLENIGFYFKPSLPMKNVDVYEERNAVNVDLGNLTSVSVLSVSYGGVGELELDFRKDLGFVAEVMANQVAVETCCRFITPLLVMLTSTCEFLYTHTFFRMFSEAIRERMKVRTMLAGYEEFFETKQSGFVATVVGLRDMSTRNSPRRGDRIYFFGNAVSGAELSEEELLDMADVERLVGLVKEGKASAIFPVKSGGLKEVADYAAALAGGKAMLFEKRGGCPATAIVLTSAEDLSGYGCELVGEIL,not soluble
5,MGSDKIHHHHHHMKLYVSFAARIRAMIDEGVLRPGDKIFSVRQASQKYGLSISTVLRGYLLLEQEGIISSHPQSGYYVTPRKRLQRHETSPLSKDINLSEVDASKLVLTTLKSIREFGTVPLGSPFPDPQLFPLKKIHQYEKALTDDEGEWGVLSDLPPGNEMLRQQIARRYLANGMDVSPDDIVITHGATEAITLCLQAVAKAGDVIALESPGYYALAHTVERLGMKVAELRTDPDSGIDLDALRATAGNVRIAAVILTANFQNPLGFVMPDAKKQALVAFLEEQQIPLIEDDVYGELYFSETAPKPAKAFDRSGLVLHCASFSKSLAPGYRVGWTVAGRYRQEVERLMFLNSLSMPSAPQIAIAKFMQRDSFERHLKQLRHTLRSQYVLIRNVIEESFPAGTQLSAPKGGYVIWVNLPAPLDALKLYRAAIDNGITVAPGTIFSRKKDLTHYIRLNFSHLWTLAIEQAVRQVGALACGMLADAGNGEA,not soluble
6,MGSDKIHHHHHHMKMNIPVIFQFLKDLSANNNREWFNEHRSEYEVARAEFDNFLATVIARISLFDETIRGIQPKDCTYRIYRDTRFSADKTPYKIHFGGYINAKGKKSDHCGYYVHLQPDGSMLAGGSLCLPPNVLKAVRQAIYDNVEEYISIVEDPEFKKYFPVVGEDFMKTAPKGFPKDFKYIDYLKCRQFVCSYLVPDDFFTRADMMEQIEKAFRQFKRFADFINYTIDDFE,not soluble
7,MGSDKIHHHHHHMKNNRINIHSQQYMETMARLMSEALESPEGMRALAAAIAAPIEQEIKRKEISSLLLTRHTLPKGERPIYQKKPTVKAHWISKDGEAQEQELGKDEVEFPTNRIHSNPMVDISVLKHGNIGTLMDIQTGAASSIRKEMDSRTITVISSAIPAANTVEVTGDKVTEEALNEAISIIEDLELSVKYIVLRGRRFNDMRSWNLDPQTKLELRQKGVIKNYGTGGILLTAAMPMDEIIIVPDEEVGKLPVRENLKTESIDQKTRFKTGWLVWSEIGQGITRPDILAKVKLVP,not soluble
8,MGSDKIHHHHHHMKNTPIERNVIDETINEFQIVDFSKATIREVKAIASKAEAVSGVEFIKMEMGVPGLPASAVGVKAEIEALQNGIASLYPDINGLPELKKEASDFIKAFINVDLSPEGCVPVTGSMQGTFASFLTCSQCDEKKDTILFIDPGFPVQKQQLVVMGQKYETFDVYDYRGDKLKEKLESYLRKGNISAIIYSNPNNPSWICLKDEELRIIGELATQYDVIVLEDLAYFAMDFRQDLSTPYQAPFQPSVAHYTDNYVLLISGSKAFSYAGQRIGVSCISDKLYHRSYPGLTKRYGGGTFGTVFIHRVLYALSSGTSHSAQYAMAAMLKAANEGQYNFLSEVKVYGDRAQKLKEIFLRHGFYLVYDNDLGDPIADGFYFTIGYPGMTSGELAKELMYYGVSAISLVTTGSHQEGLRACTSFIKDHQYAQLDERMKLFAEHHPIA,not soluble
9,MGSDKIHHHHHHMKQEVKGVQGQEYEIGLTVGDNRSDIFTFVISPESQIRKWEYVYIKAGETNLLGRIEDLLSKSDLLNDRMDYESVKKYTTSNIKDNVDICVVKIIGAVKDGIISRSRYLIRPGQPVFRATKEMLESIFKFDDQRSLEIGYLADQPDVKIFANINGLRRHLSIIAQTGAGKSHTAGVLMEELLKKGASIIVLDPHADYVLMKNSDKAIYRDNIKVFRTPMSTGRYTAKLGKVDEFTIKFQDLNDEEVREIMGIHENFVNQSKIVKDVMEKLTGRKDVDEFIQKSEQIDTEKRIAARIKYLKKIKAIFGDKTTDVSEYLAPSRMSVIDLSGLDQSLANYFAYKVISQAYDAKVTGSFEYPVFLFIEEAHNFAPPMKVKGSGVSQMLYDTIKKIAAEGRKFGIFLVIITQRPGKIDQDVLSQCNSQIILRITNPSDQKAILESSENISESLMSDLPSLDVGEAIIVGEIVKMPVIAKIRQRETEEGGLDVDIVEMLQKARMEAEKRNDPRAIVENVKKLME,not soluble
10,MGSDKIHHHHHHMKQGSLFENSQRNTPLASRVRPQTLDQFVGQAHLLGPGKILRELIENDQVSSMIFWGPPGVGKTTLAEIIARQTQATFLSFSAVDSSISKIKKIMHQAEADREIGEQTIVFVDEIHRFNKAQQDAFLPYVERGSIILIGATTENPSFEVNSALLSRCKVFVLKALATADIDQLLRNALTNPAGFSGRVTIGDAELRAIAEFANGDARMALNTLEMAVLNGDKQGDQVTVTQADLKQLITQKFVLYDKTGEEHYNIISALHKSMRNSDPDAAIYWLTRMLSGGEDPLYVARRLVRFASEDIGLADTNALNVAINVFQACQFLGMPECNVHLVEAVTYLSLAPKSNAIYKASQAAQKDVQQTRDEPVPLQLRNAPTKLMKDLGYGADYQYAHESAAKLTTMQTLPEALRGHVYYEPTEQGREGRFKARLAEIKRWQQQHRD,not soluble
11,MGSDKIHHHHHHMKQTDVVVIGSGVGGLSCAALLARYGFDVTVCESHSIPGGAAHGFERQGFKFDSGPSLYSGLSYSPSVNPLRQVLDAVGVDLPCVTYDTWGCCLPEGDFDAAVGAEQFCEVLGRLRGEAAVAEWRRLQQVMTPLAQAAIALPPAALRWDIGAALTIGRFAPTLAKQSANFFKLTGPFSRIMDGVVHDPFISNWLNLLCFLLSGLPASGTNAAEVAFMFADWYRPGVALDYPIGGSGALVNALVEGFKKHGGELLLHTHVEQVLVEGNKAAGVRLGDGQEIRARRAVVSNASVWDTLKLLPEGAVSQKFRSQRQATPECDSFMHLHLGINAQGLPPDLACHYIVVNDWELEITAPQNVILVSIPSILDPSLAPQGKHVIHVYTPGNEPYTLWQGMDRRSQEYEQQKRSRAEVMWQAVERIIPDIRSRCEIQLVGTPLTHERFLRRYRGSYGPAISAASGLFPGHGTPLPGLMCCGDSTFPGIGLPAVAASGMIVANTLAPVSQHLAMLDRVGL,not soluble
